# In patent US20090233266A1:
# Target: C-terminal domain of the NS2 protein of hepatitis C virus, amino acids 94 to 217 of NS2 from HCV genotype 1a strain H77 (residues 903 to 1026 of the HCV polyprotein) (hepatitis C virus genotype 1a strain H77) (UniProt P27958)
# Assay: X-ray crystal structure
substance,measurement,value
"C-terminal domain of the NS2 protein of hepatitis C virus, amino acids 94 to 217 of NS2 from HCV genotype 1a strain H77 (residues 903 to 1026 of the HCV polyprotein) (from UniProt P27958) (enzyme)",total buried surface area,1100 Å^2
